From patent US20250282885A1 (VST BIO, published 2025)
Positions count from the first letter of the chain named.

B1: R3-P3-E09 (antibody, human IgG1, kappa, V domains shown)
VH: EVQLVETGGGVVQPGRSLTLSCGASEFTFSNYAMHWVRQAPGKGLEWVAVISYDGTKKYYGDSVKGRFTISRENIKNTLYLQMNSLRSEDTAVYYCARDVGKGVTATGTFDIWGQGTMVTVSS
VL: AIRMTQSPSSLSASVGDRVTITCRASQGIGSYLAWFQQKPGEAPKSLIIDATRLKSGVPSRFSGSGSGTEFALTISSLRPEDFATYYCQQYNVSPLTFGGGTKVEIKR
notes: human IgG1 kappa from the phage campaign
B2: 6-N03-A (antibody, mouse IgG1, kappa, V domains shown)
VH: EVQLVESGGGLVKPGGSLKLSCEASGITFSNYVMSWVRQTPEKRLEWVATISDGGSYTYYPDNVKGRFTISRDNAKNNLYLQMSHLKSEDTAMYYCVRDRYDYDGRVYAMDYWGQGTSVTVSS
VL: DVVMTQTPLSLPVSLGDQASISCRSSQSLVHSNGDTYLHWYLQKPGQSPKLLIYKVSNRFSGVPDRFSGSGSGTDFTLKITRVEAEDLGVYFCSQSTHVPWTFGGGTKLEIKR
B3: 19838-6-N03-A (antibody, IgG1, V domains shown)
VH: B2 VH
VL: B2 VL
B4: TP-43327F (antibody, human IgG1, kappa, V domains shown)
VH: QVQLVESGGGVVQPGGSLRLSCAASGFTFNIYAMHWVRQAPGKGLEWVARIGSKSSYYATYYADSVKGRFTISRDNSKNTLYLQMNSLRTEDTAVYYCVSGKGDWGQGTLVTVSS
VL: DVVMTQSPLSLPVTLGQPASISCRSSQSLLAGDGKTYLNWFLQRPGQSPRRLIYLVSKLDSGVPDRFSGSGSGTDFTLKISRVEAEDVGVYYCWQGTHFPWTFGAGTRLEIKR
B5: TP-43329F (antibody, human IgG1, kappa, V domains shown)
VH: B4 VH
VL: B4 VL with L42Q

Assays:
[1] = molecular target: human Sdc2 on Human Umbilical Vein Endothelial Cells (HUVEC) (human, UniProt P34741 19-201); assay: cell-based or functional assay
human Sdc2 [2] = molecular target: T1, human Sdc2 (human, UniProt P34741 19-144, limits assumed); assay: Kd (human Sdc2), summary table of the mAbs
T1 construct: Antigen of the Octet tandem binning, loaded on biosensors at 100 nM; also called huSdc2; hSdc2

human Sdc2 [3] = molecular target: T1, human Sdc2; assay: Octet BLI, heading box over the sensorgram
Experimental: In order to characterize the binding affinity and in vivo/in vitro functional ability of the twelve clones generated by the previous studies and disclosed in Table 1, a series of assays were performed on each clone. These assays measured the affinity of each antibody clone for human, pig, and mouse Sdc2 using an Octet® binding assay system. Additionally, the functional ability of each clone to inhibit VEGFA-driven permeability (see Santiago, et al. (2021) J Am Heart Assoc. 10(18):e020521) was assessed in two therapeutic settings: a “prevention” study in which three concentrations of antibody (5 μg/ml, 10 μg/ml, 15 μg/ml, 20 μg/ml, and/or 40 μg/ml depending on the study) were pre-incubated for an hour before administration of 100 ng/ml of VEGFA, and a “treatment” study in which 3 hours of pre-treatment with 100 ng/ml VEGFA were followed by treatment with antibody at 20 μg/ml or 40 μg/ml. Results are shown for 8-G17 in FIG. 8 and FIG. 9, 20-H19-AB in FIG. 10 and FIG. 11 (FIG. 12 for monkey ECs), R3-P3-C11 in FIG. 13 and FIG. 14, R4M-P3-E06 in FIG. 15 and FIG. 16, R3-P3-E09 in FIG. 17 and FIG. 18, R3-P1-C02 in FIG. 19 and FIG. 20, R3-P3-A12 in FIG. 21 and FIG. 22, R4M-P3-A12 in FIG. 23 and FIG. 24, and R4M-P1-A10 in FIG. 25 and FIG. 26.

human Sdc2 [4] = molecular target: T1, human Sdc2; assay: Octet tandem binning; saturating Ab f3 19838-6N03-A
Experimental: (§1) These studies were performed in a tandem binning assay format with human Sdc2, used as the antigen (concentration of 100 nM). Antigen loaded biosensors were dipped in a saturating solution of antibody (25 μg/ml) for 240 seconds followed by a competing antibody at 5 μg/ml for 180 seconds. […] Since saturation is not possible to achieve saturation with these clones, they are removed in as ligands, but retained in the analyte orientation in the analysis. A table summarizing the results of epitope binning of the 18 antibodies against huSdc2 is illustrated in FIG. 30. Data is normalized, where the raw binding signal from Competing Ab for a given Saturating Ab is divided by binding in the absence a […] (“buffer”). The threshold determining the matrix color is adjustable and dependent upon Ag-Ab binding. […] Table rows are based on similar looking binding profiles. Note that the coloration/cutoff is subjective, yellow color added to represent injections with ambiguous or very weak sandwiching signals. FIG. 31 illustrates a clustergram of the epitope binning studies, which was generated from the normalized binning data by importation into the statistical computing program R (The R Project for Statistical Computing: at r-project.org) and generation of a clustergram with the pvclust package.

human Sdc2 [5] = molecular target: T1, human Sdc2; assay: Octet tandem binning; saturating Ab m2 19838-8G17-A
Experimental: as §1

human Sdc2 [6] = molecular target: T1, human Sdc2; assay: Octet tandem binning; saturating Ab f9 19838-6-E17-A
Experimental: as §1

human Sdc2 [7] = molecular target: T1, human Sdc2; assay: Octet tandem binning; saturating Ab f12 19838-6-N03-A
Experimental: as §1

human Sdc2 [8] = molecular target: T1, human Sdc2; assay: Octet tandem binning; saturating Ab m1 19838-20H19-AB
Experimental: as §1

human Sdc2 [9] = molecular target: T1, human Sdc2; assay: Octet tandem binning; saturating Ab f10 19838-10-I12-A
Experimental: as §1

human Sdc2 [10] = molecular target: T1, human Sdc2; assay: Octet tandem binning; saturating Ab f11 19838-20-H19-A
Experimental: as §1

human Sdc2 [11] = molecular target: T1, human Sdc2; assay: Octet tandem binning; saturating Ab f4 19844-R3-P3-C11
Experimental: as §1

human Sdc2 [12] = molecular target: T1, human Sdc2; assay: Octet tandem binning; saturating Ab f7 19844-R3-P3-A12
Experimental: as §1

human Sdc2 [13] = molecular target: T1, human Sdc2; assay: Octet tandem binning; saturating Ab m7 19844-R3-P1-E07
Experimental: as §1

human Sdc2 [14] = molecular target: T1, human Sdc2; assay: Octet tandem binning; saturating Ab f5 19844-R4M-P3-E06
Experimental: as §1

human Sdc2 [15] = molecular target: T1, human Sdc2; assay: Octet tandem binning; saturating Ab f8 19844-R4M-P2-C02
Experimental: as §1

human Sdc2 [16] = molecular target: T1, human Sdc2; assay: Octet tandem binning; saturating Ab m4 19844-R4M-P1-A10
Experimental: as §1

human Sdc2 [17] = molecular target: T1, human Sdc2; assay: Octet tandem binning; Buffer in place of a saturating Ab
Experimental: as §1

human Sdc2 [18] = molecular target: T1, human Sdc2; assay: Octet BLI, HIS1K sensor loaded with hSdc2, antibody as sample; Full R2 0.9248
human Sdc2 [19] = molecular target: T1, human Sdc2; assay: Octet tandem binning; saturating Ab m6 19838-20H19-AA (marked non-binding ligand)
Experimental: as §1

human Sdc2 [20] = molecular target: T1, human Sdc2; assay: Octet tandem binning; saturating Ab m3 19844-R3-P1-C02 (row boxed, self-self >0.09)
Experimental: as §1

human Sdc2 [21] = molecular target: T1, human Sdc2; assay: Octet tandem binning; saturating Ab m8 19844-R4M-P1-B01 (marked non-binding ligand)
Experimental: as §1

human Sdc2 [22] = molecular target: T1, human Sdc2; assay: Octet tandem binning; saturating Ab m5 19844-R4M-P3-A12 (row boxed, self-self >0.09)
Experimental: as §1

human Sdc2 [23] = molecular target: T1, human Sdc2; assay: Octet tandem binning; saturating Ab f6 19844-R3-P3-E09
Experimental: as §1

human Sdc2 on Human Umbilical Vein Endothelial Cells (HUVEC), sequence (P34741 19-201 limits assumed): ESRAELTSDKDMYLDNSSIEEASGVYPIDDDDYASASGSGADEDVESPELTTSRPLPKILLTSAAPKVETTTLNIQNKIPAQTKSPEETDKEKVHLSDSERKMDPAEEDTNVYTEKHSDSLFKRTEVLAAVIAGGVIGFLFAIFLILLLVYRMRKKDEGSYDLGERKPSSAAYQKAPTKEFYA
T1 sequence (P34741 19-144 limits assumed): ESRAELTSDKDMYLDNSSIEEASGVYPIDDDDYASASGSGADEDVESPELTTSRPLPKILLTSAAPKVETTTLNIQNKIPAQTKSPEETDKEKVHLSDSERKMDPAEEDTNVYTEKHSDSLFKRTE

Binder | % Inhibition of VEGFA-induced permeability at 24hrs (20ug/ml) [1] [%] | Kd (human Sdc2 [2]) [nM] | raw competing-Ab binding signal (human Sdc2 [4]) | raw competing-Ab binding signal (human Sdc2 [5]) | raw competing-Ab binding signal (human Sdc2 [6]) | raw competing-Ab binding signal (human Sdc2 [7]) | raw competing-Ab binding signal (human Sdc2 [8]) | raw competing-Ab binding signal (human Sdc2 [9]) | raw competing-Ab binding signal (human Sdc2 [10]) | raw competing-Ab binding signal (human Sdc2 [11]) | raw competing-Ab binding signal (human Sdc2 [12]) | raw competing-Ab binding signal (human Sdc2 [13]) | raw competing-Ab binding signal (human Sdc2 [14]) | raw competing-Ab binding signal (human Sdc2 [15]) | raw competing-Ab binding signal (human Sdc2 [16]) | raw competing-Ab binding signal (human Sdc2 [17]) | raw competing-Ab binding signal (human Sdc2 [19]) | raw competing-Ab binding signal (human Sdc2 [20]) | raw competing-Ab binding signal (human Sdc2 [21]) | raw competing-Ab binding signal (human Sdc2 [22]) | further results
B1 | 75 | 17.7 | 0.407 | 0.397 | 0.376 | 0.518 | 0.273 | 0.151 | 0.337 | -0.138 | -0.135 | 0.348 | 0.338 | 0.209 | 0.241 | 0.285 | 0.293 | 0.246 | 0.307 | 0.304 | Kd (human Sdc2 [3]): ~17.7 nM; Kd (human Sdc2 [18]): 17.7 nM; koff (human Sdc2 [18]): 0.00908 s⁻¹; kon (human Sdc2 [18]): 513000 M⁻¹ s⁻¹
B2 | 50 | 1.17 | – | -0.0492 | 0.422 | 0.0194 | 0.0812 | 0.0887 | 0.0908 | 0.301 | 0.179 | 0.486 | 0.463 | 0.418 | 0.374 | 0.477 | 0.487 | 0.397 | 0.497 | 0.472 | raw competing-Ab binding signal (human Sdc2 [23]): 0.346
B3 | – | – | 0.0058 | -0.0312 | 0.378 | – | 0.0556 | 0.0734 | 0.122 | 0.197 | 0.162 | 0.48 | 0.463 | 0.326 | 0.336 | 0.413 | 0.501 | 0.332 | 0.388 | 0.435 | raw competing-Ab binding signal (human Sdc2 [23]): 0.31
B4 | 100 | < 0.1 | – | – | – | – | – | – | – | – | – | – | – | – | – | – | – | – | – | – | –
B5 | 100 | 0.8 | – | – | – | – | – | – | – | – | – | – | – | – | – | – | – | – | – | – | –
